B1: d(pA)12 x d(pT)12 (dsDNA)
DNA 1: AAAAAAAAAAAA
DNA 2: TTTTTTTTTTTT
modifications: 5' phosphate
B2: d(pA)16 x d(pT)16 (dsDNA)
DNA 1: AAAAAAAAAAAAAAAA
DNA 2: TTTTTTTTTTTTTTTT
modifications: 5' phosphate
B3: d(pA)20 x d(pT)20 (dsDNA)
DNA 1: AAAAAAAAAAAAAAAAAAAA
DNA 2: TTTTTTTTTTTTTTTTTTTT
modifications: 5' phosphate
B4: ODN1 x ODNcom1 (dsDNA)
DNA 1: CAGACGATCAGCGACGCGTC
DNA 2: GACGCGTCGCTGATCGTCTG
B5: ODN2 x ODNcom2 (dsDNA)
DNA 1: AGTGCCTGACCGTCGTCGAC
DNA 2: GTCGACGACGGTCAGGCACT
B6: d(pA)3 + d(pT)3 mixture (mixed)
?: AAA
DNA: TTT
modifications: 5' phosphate
B7: d(pA)6 + d(pT)6 mixture (mixed)
?: AAAAAA
DNA: TTTTTT
modifications: 5' phosphate

These molecules were tested against T1, histone H1° (H1.0) (Homo sapiens, UniProt P07305 1-194) (assay: competition filter binding (I50); 5 mM Mg2+; 20 mM Tris-HCl pH 7.5, 5 mM MgCl2, 1 mM EDTA, 0.3 mg/mL H1, 1 h at 20 C; nitrocellulose filters; competition against 12.0 uM 32P 12-mer; mononucleotides dAMP/dCMP/dTMP not listed). Details: protein: commercial.
T1 sequence (P07305 whole entry): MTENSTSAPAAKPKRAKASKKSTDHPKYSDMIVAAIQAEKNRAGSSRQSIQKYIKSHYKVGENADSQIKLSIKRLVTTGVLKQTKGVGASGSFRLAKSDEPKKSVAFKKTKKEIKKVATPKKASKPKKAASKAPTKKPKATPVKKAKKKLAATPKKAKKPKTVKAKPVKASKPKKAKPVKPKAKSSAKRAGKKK

Row | Molecule | Kd [µM]
1 | AAAA (ssDNA, 5' phosphate) [d(pA)4] | 240
2 | CCCCC (ssDNA, 5' phosphate) [d(pC)5] | 300
3 | CCCCCC (ssDNA, 5' phosphate) [d(pC)6] | 61
4 | CCCCCCCC (ssDNA, 5' phosphate) [d(pC)8] | 34
5 | CCCCCCCCCC (ssDNA, 5' phosphate) [d(pC)10] | 25
6 | CCCCCCCCCCCC (ssDNA, 5' phosphate) [d(pC)12] | 20
7 | TTTT (ssDNA, 5' phosphate) [d(pT)4] | 96
8 | TTTTT (ssDNA, 5' phosphate) [d(pT)5] | 75
9 | TTTTTT (ssDNA, 5' phosphate) [d(pT)6] | 48
10 | TTTTTTTT (ssDNA, 5' phosphate) [d(pT)8] | 76
11 | AAAAA (ssDNA, 5' phosphate) [d(pA)5] | 70
12 | TTTTTTTTTT (ssDNA, 5' phosphate) [d(pT)10] | 25
13 | TTTTTTTTTTTT (ssDNA, 5' phosphate) [d(pT)12] | 10
14 | TTTTTTTTTTTTTTTT (ssDNA, 5' phosphate) [d(pT)16] | 5
15 | TTTTTTTTTTTTTTTTTTTT (ssDNA, 5' phosphate) [d(pT)20] | 4.6
16 | ATG (ssDNA, 5' phosphate) [d(pATG)] | 1500
17 | TAAAATCAAA (ssDNA) [10-mer d(TAAAATCAAA)] | 30
18 | TCCCATCAAA (ssDNA) [10-mer d(TCCCATCAAA)] | 30
19 | TATAATCTTA (ssDNA) [10-mer d(TATAATCTTA)] | 28
20 | TAGAAGATCAAA (ssDNA) [12-mer hetero-ON, unlabeled competitor] | 12
21 | CAGACGATCAGCGACGCGTC (ssDNA) [ODN1] | 4
22 | AAAAAA (ssDNA, 5' phosphate) [d(pA)6] | 57
23 | AGTGCCTGACCGTCGTCGAC (ssDNA) [ODN2] | 3.8
24 | GACGCGTCGCTGATCGTCTG (ssDNA) [ODNcom1] | 3.7
25 | GTCGACGACGGTCAGGCACT (ssDNA) [ODNcom2] | 4.1
26 | AAAAAAAA (ssDNA, 5' phosphate) [d(pA)8] | 48
27 | AAAAAAAAAA (ssDNA, 5' phosphate) [d(pA)10] | 28
28 | AAAAAAAAAAAA (ssDNA, 5' phosphate) [d(pA)12] | 14
29 | AAAAAAAAAAAAAAAA (ssDNA, 5' phosphate) [d(pA)16] | 10
30 | AAAAAAAAAAAAAAAAAAAA (ssDNA, 5' phosphate) [d(pA)20] | 10

Same assay, conditions: protein: commercial; blunt

Row | Molecule | Kd [µM]
31 | B1 | 7.5
32 | B2 | 3.8
33 | B3 | 3
34 | B4 | 2.7
35 | B5 | 2.9

Same assay, conditions: protein: commercial; mixture of complementary strands, not a preformed duplex

Row | Molecule | Kd [µM]
36 | B6 | 1000
37 | B7 | 55

Each molecule was assayed against T2, H1° histone (human recombinant; H1 histone) (Homo sapiens, UniProt P07305) (assay: competition with […]'-[…]TAGAAGATCAAA, nitrocellulose filter binding). Details: 20 mM Tris-HCl pH 7.5, 5 mM MgCl2, 1 mM EDTA, 20 °C, 0.3 mg/mL H1; Kd taken as I50 with 12 µM labelled 12-mer (its Kd); error not above 10–12%.
T2 construct: gene H1-0; commercial recombinant human H1° (BioLabs M2501S), free histone
T2 sequence (P07305 2-194): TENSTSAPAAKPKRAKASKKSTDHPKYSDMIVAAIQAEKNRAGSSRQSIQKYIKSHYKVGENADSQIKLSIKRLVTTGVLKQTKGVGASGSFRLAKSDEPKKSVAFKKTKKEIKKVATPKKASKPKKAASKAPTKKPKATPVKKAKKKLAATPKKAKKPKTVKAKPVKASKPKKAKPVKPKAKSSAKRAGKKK

Row | Molecule | Kd [µM]
38 | Nc1ncnc2c1ncn2[C@H]1C[C@H](O)[C@@H](COP(=O)(O)O)O1 [dAMP] | 16000
39 | Nc1ccn([C@H]2C[C@H](O)[C@@H](COP(=O)(O)O)O2)c(=O)n1 [dCMP] | 10000
40 | Cc1cn([C@H]2C[C@H](O)[C@@H](COP(=O)(O)O)O2)c(=O)[nH]c1=O [dTMP] | 13000

What follows are molecules tested against T1, histone H1° (H1.0) (assay: competition filter binding (I50)). Details: 5' phosphate; 20 mM Tris-HCl pH 7.5, 5 mM MgCl2, 1 mM EDTA, 0.3 mg/mL H1, 1 h at 20 C; nitrocellulose filters; competition against 12.0 uM 32P 12-mer; mononucleotides ….

Row | Molecule | Kd [µM]
41 | d(pC)2 | 4400

These molecules were tested against T1, histone H1° (H1.0) (assay: filter binding; 5 mM Mg2+; 20 mM Tris-HCl pH 7.5, 5 mM MgCl2, 1 mM EDTA, 0.3 mg/mL H1, 1 h at 20 C; nitrocellulose filters; competition against 12.0 uM 32P 12-mer; mononucleotides dAMP/dCMP/dTMP not listed). Details: protein: commercial; label: 5'-32P.

Row | Molecule | Kd [µM]
42 | TAGAAGATCAAA (ssDNA, 5' phosphate (32P)) [12-mer hetero-ON 32P probe] | 12

Source: PMC7582325, “How Human H1 Histone Recognizes DNA” (Molecules, 2020)
